This assay deals with Canavalia villosa seed lectin (Cvill) (Canavalia villosa). Put plainly: crystal structure; Cvill with alpha-methyl-D-mannopyranoside; 17.5% PEG1000, 0.1 M potassium phosphate citrate pH 4.2, 200 mM lithium sulfate, room temperature; space group I222, one monomer per asymmetric unit; tetramer formed by the crystal's 222 symmetry, dimers and tetramers predicted with PISA.

The values that follow come from publication PMC10649158.

With “Canavalia villosa seed lectin (Cvill) (natural protein)”, the stoichiometry N (as a rule, a count of units in the complex or per binding partner) was 4.
